# Measurements as given in patent US6638724.
# System: T1, human BLNK-1 (B cell LINKER PROTEIN, 70,000 Mr protein)
# T1 sequence: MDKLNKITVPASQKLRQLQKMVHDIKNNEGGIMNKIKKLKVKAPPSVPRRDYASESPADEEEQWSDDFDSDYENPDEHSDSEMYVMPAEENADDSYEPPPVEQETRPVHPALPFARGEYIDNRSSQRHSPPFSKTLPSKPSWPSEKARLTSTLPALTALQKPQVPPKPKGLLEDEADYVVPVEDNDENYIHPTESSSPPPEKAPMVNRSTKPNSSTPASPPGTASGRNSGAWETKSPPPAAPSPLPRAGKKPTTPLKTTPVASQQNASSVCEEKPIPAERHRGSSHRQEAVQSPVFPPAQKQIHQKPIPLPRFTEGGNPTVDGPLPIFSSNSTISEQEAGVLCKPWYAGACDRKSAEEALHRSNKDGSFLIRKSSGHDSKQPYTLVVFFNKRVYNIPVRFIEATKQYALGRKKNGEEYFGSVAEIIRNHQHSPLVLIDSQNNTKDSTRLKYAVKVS
substance,measurement,value
Syk protein tyrosine kinase,tyrosine phosphorylation of BLNK,"Syk can phosphorylate BLNK when co-expressed in insect cells, and in vitro"
